# Test results: patent US20120064547A1 (PROBIODRUG, published 2012)
# Where no end group is shown, it is not given here. Side-chain parts run from the residue outwards. [ ]: non-standard residue; d: D form. SMPH = maleimide crosslinker coupling C-terminal Cys to BSA; pGlu = O=C1CC[C@@H](C(=O)O)N1
# T1: BSA-pGlu-6166 peptide (pGlu-FRHDSGC conjugated to bovine serum albumin)
# T1 construct: also called N3pE-BSA
# T1 peptide: [pGlu]FRHDSGC([SMPH-BSA])
# T2: PepSpot peptide No. 5 EFRHDSGYEVHHQ
# T2 construct: Spotted on a PepSpot membrane; also called spot number 5
# T2 peptide: EFRHDSGYEVHHQ
# T3: PepSpot peptide No. 6 pEFRHDSGYEVHHQ
# T3 construct: Spotted on a PepSpot membrane; also called spot number 6; the specific Aβ N3pE-x spot
# T3 peptide: [pGlu]FRHDSGYEVHHQ
# T4: PepSpot peptide No. 7 FRHDSGYEVHHQK
# T4 construct: Spotted on a PepSpot membrane; also called spot number 7
# T4 peptide: FRHDSGYEVHHQK
# T5: Gonadoliberin (human, UniProt P01148 24-33, N-terminal pyroglutamate (pGlu peptide))
# T5 construct: Whole peptide or N-terminal region
# T5 peptide (looked up): QHWSYGLRPG
# T6: MCP-2 (human, UniProt P80075 24-99, limits assumed, N-terminal pyroglutamate (pGlu peptide))
# T6 construct: Whole peptide or N-terminal region
# T6 sequence (peptide, looked up): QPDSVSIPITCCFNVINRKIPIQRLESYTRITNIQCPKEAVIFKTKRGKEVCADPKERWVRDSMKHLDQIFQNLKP
# T7: Big Gastrin (human, UniProt P01350 59-92, limits assumed, N-terminal pyroglutamate (pGlu peptide))
# T7 construct: Whole peptide or N-terminal region
# T7 peptide (looked up): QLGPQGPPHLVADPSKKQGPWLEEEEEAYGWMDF
# T8: Orexin A (human, UniProt O43612 34-66, limits assumed, N-terminal pyroglutamate (pGlu peptide))
# T8 construct: Whole peptide or N-terminal region
# T8 peptide (looked up): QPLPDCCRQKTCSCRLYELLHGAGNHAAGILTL
# T9: Aβ pE11-40 (N-terminal Glu (position 11 of Aβ) cyclized to pyroglutamate)
# T9 construct: No entry of its own
# T9 peptide: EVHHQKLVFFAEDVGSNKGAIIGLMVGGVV
# Columns and labels:
# [1] = molecular target: T10, Aβ N3pE-40 peptide (N-terminal Glu (position 3 of Aβ) cyclized to pyroglutamate); assay: SPR (Biacore, CM5 chip with coupled Aβ N3pE-40), overlay of hybridoma supernatants. The sheet carries the label Figure 6, but its content is that of the legend of FIG. 5
# T10 construct: Synthetic peptide; also called AβpE3-40; amyloid β N3pE-40
# [2] = molecular target: isoDAE-BSA; assay: IgG ELISA, hybridoma supernatant on peptide-BSA coat
# Protocol: (§1) An IgG directed ELISA was used to screen the cell culture supernatant. […] 100 μl undiluted cell culture supernatant was added to each well and incubated for 1 h at RT. Supernatant from SP2/0 cells was used as negative control. Supernatant from the spleen cells was used as positive control.
# [3] = molecular target: N11E-BSA; assay: as above
# Protocol: as §1
# [4] = molecular target: N11pE-BSA; assay: as above
# Protocol: as §1
# [5] = molecular target: N3E-BSA; assay: as above
# Protocol: as §1
# [6] = molecular target: T1, BSA-pGlu-6166 peptide (pGlu-FRHDSGC …); assay: as above
# Protocol: as §1
# [7] = molecular target: T2, PepSpot peptide No. 5 EFRHDSGYEVHHQ; assay: PepSpot peptide membrane
# [8] = molecular target: T3, PepSpot peptide No. 6 pEFRHDSGYEVHHQ; assay: PepSpot peptide membrane
# [9] = molecular target: T4, PepSpot peptide No. 7 FRHDSGYEVHHQK; assay: PepSpot peptide membrane
# [10] = molecular target: T10, Aβ N3pE-40 peptide; assay: SPR Biacore 3000, AβpE3-40 on CM5 chip, bivalent analyte model
# Protocol: (§2) The affinity was determined using a Biacore 3000 with CM5-Chip, on which AβpE3-40 was immobilized. The system was run with 30 μl/min. Measured bulk effects and unspecific binding to the chip surface were corrected by subtraction of the signal of flow cell 4, at which AβpE3-40 was immobilized, and the empty flow cell 3. The association (10 min) was obtained by injection of 300 μl of each concentration. The dissociation was observed over 10 min. Remaining antibody molecules were removed by injection of 5 μl 0.1 M HCL. For every antibody concentration the association and dissociation was recorded. The determination of the association and dissociation rate and the dissociation constant was performed by a global simultaneously fit of association and dissociation phase for all recorded antibody concentrations using the “Bivalent analyte” model.
# [11] = molecular target: T5, Gonadoliberin; assay: SPR (Biacore 3000), peptide on CM5 chip, antibody 25 µg/ml
# Protocol: (§3) Beside different Aβ species also the cross reactivity to other pGlu-Peptide, which occur in the human body, was determined. This was made by surface plasmon resonance. Following peptides or there N-terminal region of them were immobilized on the surface of CM5-Chips:
# (§4) MCP1, MCP2, big gastrin, gonadoliberin, neurotensin, orexin A, fibronectin, collagen 1 and TRH. As positive control also the binding to AβpE3-40 was analyzed. […] For every interaction of the antibody with the different peptides the association and dissociation was recorded. The cross reactivity was determined by evaluation of the association phase concerning rate and signal at the end. The values for all pGlu-Peptides compared with the signal for AβpE3-40.
# (§5) The sensograms of the pGlu peptides were compared with the sensogram for AβpE3-40.
# [12] = molecular target: MCP-1 (human, UniProt P13500 24-99, limits assumed, N-terminal pyroglutamate (pGlu peptide)); assay: as above
# Protocol: as §3, §4, §5
# [13] = molecular target: T6, MCP-2; assay: as above
# Protocol: as §3, §4, §5
# [14] = molecular target: T7, Big Gastrin; assay: as above
# Protocol: as §3, §4, §5
# [15] = molecular target: T8, Orexin A; assay: as above
# Protocol: as §3, §4, §5
# [16] = molecular target: T11, Neurotensin (human, UniProt P30990 151-163, N-terminal pyroglutamate (pGlu peptide)); assay: as above
# T11 construct: Whole peptide or N-terminal region
# Protocol: as §3, §4, §5
# [17] = molecular target: T12, Aβ 4-40; assay: N3pE sandwich ELISA (4G8 capture, 6-1-6 detection), peptide at 25 pg/ml
# T12 construct: No entry of its own
# Protocol: (§6) A 96-well maxisorb plate (Nunc) was coated with capture antibody by incubation of 100 μl per well of 2 μg/ml anti-Aβ antibody 4G8, diluted in D-PBS, overnight at 4° C. The plated was sealed. The coating solution was removed and the surface of the plate was blocked with 200 μl per well PIERCE Protein-free ELISA-Blocker (without Tween-20) for 2 hours at room temperature. Afterwards the plate was washed with 6-times with TBS+0.05% (v/v) Tween-20. Remaining washing solution was removed by tapping of the plate. […] 100 μl of every concentration and 100 μl of dilution buffer (Blank) were pipetted on the plate. The plate was sealed and incubated at 4° C. for 2 hours. Afterwards the plate was washed 6-times with TBS+0.05% (v/v) Tween-20. Remaining washing solution was removed by tapping of the plate. […] The plate was sealed and incubated at 4° C. for 1 hour. Afterwards the plate was washed 6-times with TBS+0.05% (v/v) Tween-20. Remaining washing solution was removed by tapping of the plate. In every well 100 μl SureBlue substrate solution (KPL) were pipetted and the plate was incubated in the dark at room temperature for 30 min. The reaction was stopped by addition of 100 μl per well of 1 M H₂SO₄. The absorbance was measured with TECAN Sunrise at 450 nm corrected by the absorbance at 540 nm.
# [18] = molecular target: Aβ 1-42; assay: as above
# Protocol: as §6
# [19] = molecular target: T9, Aβ pE11-40; assay: as above
# Protocol: as §6
# [20] = molecular target: T10, Aβ N3pE-40 peptide; assay: SPR Biacore 3000, AβpE3-40 on CM5 chip, antibody 1-100 nM, bivalent analyte model
# Protocol: as §2
# [21] = molecular target: T10, Aβ N3pE-40 peptide; assay: N3pE sandwich ELISA (4G8 capture, 6-1-6 detection), 3.125 pg/ml peptide
# Protocol: A 96-well maxisorb plate (Nunc) was coated with capture antibody by incubation of 100 μl per well of 2 μg/ml anti-Aβ antibody 4G8, diluted in D-PBS, overnight at 4° C. The plated was sealed. The coating solution was removed and the surface of the plate was blocked with 200 μl per well PIERCE Protein-free ELISA-Blocker (without Tween-20) for 2 hours at room temperature. Afterwards the plate was washed with 6-times with TBS+0.05% (v/v) Tween-20. Remaining washing solution was removed by tapping of the plate. […] 100 μl of every concentration and 100 μl of dilution buffer (Blank) were pipetted on the plate. The plate was sealed and incubated at 4° C. for 2 hours. Afterwards the plate was washed 6-times with TBS+0.05% (v/v) Tween-20. Remaining washing solution was removed by tapping of the plate. […] The plate was sealed and incubated at 4° C. for 1 hour. Afterwards the plate was washed 6-times with TBS+0.05% (v/v) Tween-20. Remaining washing solution is removed by tapping of the plate. In every well 100 μl SureBlue substrate solution (KPL) are pipetted and the plate was incubated in the dark at room temperature for 30 min. The reaction was stopped by addition of 100 μl per well of 1 M H₂SO₄. The absorbance was measured with TECAN Sunrise at 450 nm corrected by the absorbance at 540 nm.
# [22] = molecular target: T12, Aβ 4-40; assay: N3pE sandwich ELISA (4G8 capture, 6-1-6 detection), peptide at 12.5 pg/ml
# Protocol: as §6
# [23] = molecular target: Aβ 1-42; assay: as above
# Protocol: as §6
# [24] = molecular target: T9, Aβ pE11-40; assay: as above
# Protocol: as §6
# [25] = molecular target: T12, Aβ 4-40; assay: N3pE sandwich ELISA (4G8 capture, 6-1-6 detection), peptide at 800 pg/ml
# Protocol: as §6
# [26] = molecular target: Aβ 1-42; assay: as above
# Protocol: as §6
# [27] = molecular target: T9, Aβ pE11-40; assay: as above
# Protocol: as §6
# [28] = molecular target: T12, Aβ 4-40; assay: N3pE sandwich ELISA (4G8 capture, 6-1-6 detection), peptide at 400 pg/ml
# Protocol: as §6
# [29] = molecular target: Aβ 1-42; assay: as above
# Protocol: as §6
# [30] = molecular target: T9, Aβ pE11-40; assay: as above
# Protocol: as §6
# [31] = molecular target: T12, Aβ 4-40; assay: N3pE sandwich ELISA (4G8 capture, 6-1-6 detection), peptide at 200 pg/ml
# Protocol: as §6
# [32] = molecular target: Aβ 1-42; assay: as above
# Protocol: as §6
# [33] = molecular target: T9, Aβ pE11-40; assay: as above
# Protocol: as §6
# [34] = molecular target: T10, Aβ N3pE-40 peptide; assay: DotBlot
# Protocol: A simple DotBlot protocol was accomplished to obtain information about the sensitivity of Aβ N3pE antibody and cell culture supernatants towards the respective native peptide. To that end, Aβ N3pE-40 peptide in descending concentrations (1000 ng-8 ng) was spotted onto small pieces of nitrocellulose membrane, and subsequent experimental procedure was performed as for the PepSpot™ membranes.
# [35] = molecular target: T12, Aβ 4-40; assay: N3pE sandwich ELISA (4G8 capture, 6-1-6 detection), peptide at 50 pg/ml
# Protocol: as §6
# [36] = molecular target: Aβ 1-42; assay: as above
# Protocol: as §6
# [37] = molecular target: T9, Aβ pE11-40; assay: as above
# Protocol: as §6
# [38] = molecular target: T10, Aβ N3pE-40 peptide; assay: Biacore, peptide on CM5 chip, hybridoma supernatants
# Protocol: Aβ N3pE-40 peptide (positive control) and Aβ N3E-40 peptide (negative control) were coupled on a Biacore CM5 Chip. Unmodified chips are used to determine blank values. […] In this way also binding characteristics of the individual cell culture supernatants were determined.
# [39] = molecular target: T13, Collagen 1 (human); assay: SPR (Biacore 3000), peptide on CM5 chip, antibody 25 µg/ml
# T13 construct: Whole protein or N-terminal region, and which collagen chain
# Protocol: as §3, §4, §5
# [40] = molecular target: T12, Aβ 4-40; assay: N3pE sandwich ELISA (4G8 capture, 6-1-6 detection), peptide at 100 pg/ml
# Protocol: as §6
# [41] = molecular target: Aβ 1-42; assay: as above
# Protocol: as §6
# [42] = molecular target: T9, Aβ pE11-40; assay: as above
# Protocol: as §6
binder,measurement,setting,value
"Aβ 17-4-3 (monoclonal antibody of hybridoma cell line 17-4-3, DSM ACC 2925) (antibody, V domains shown, Mouse hybridoma IgG; The entries as printed begin with a leader and end with the first residues of the constant region; Heavy chain amplified with primer MHCG2b, light chain with MKC; Tested as hybridoma culture supernatant; also called clone 17-4-3; antibody 17-4-3) VH: EVKLVESGGGLVQPGGSRKLSCAASGFTFSDYGMAWVRQAPGKGPEWVAFISNLAYSIYYADTVTGRFTISRENAKNTLYLEMSSLRSEDTAMYYCARYDYDNILDYVMDYWGQGTSVTVSS VL: DVVMTQTPLSLPVSLGDQASISCRSSQSLVHSDGNTYLHWYLQKPGQSPKLLIYKVSNRFSGVPDRFSGSGSGTDFTLKISRVEAEDLGVYFCSQSTHVPPTFGGGTKLEIKR",binding result,[1],binds
same,signal in ELISA (OD),[2],0.007 OD 405 nm
same,signal in ELISA (OD),[3],0.003 OD 405 nm
same,signal in ELISA (OD),[4],0.004 OD 405 nm
same,signal in ELISA (OD),[5],0.32 OD 405 nm
same,signal in ELISA (OD),[6],1.92 OD 405 nm
same,binding result,[7],binds
same,binding result,[8],binds
same,binding result,[9],binds
"Aβ 24-2-3 (monoclonal antibody of hybridoma cell line 24-2-3, DSM ACC 2926) (antibody, V domains shown, Mouse hybridoma IgG; The entries as printed begin with a leader and end with the first residues of the constant region; Heavy chain amplified with primer MHCG2b, light chain with MKC; Tested as supernatant and as purified antibody; also called clone 24-2-3; N3pE antibody clone 24-2-3) VH: QVQLQQSGAELVRPGSSVKISCKASGYIFNNYWINWVKQRPGQGLEWIGQIYPGDGDTNYNGKFKGKATLTADKSSSTAYMQLSSLTSEDSAVYFCAREGYIVYWGQGTLVTVSA VL: not shown",signal in ELISA (OD),[2],0.014 OD 405 nm
same,signal in ELISA (OD),[4],0.002 OD 405 nm
same,signal in ELISA (OD),[5],0.218 OD 405 nm
same,signal in ELISA (OD),[6],1.77 OD 405 nm
same,binding result,[7],binds
same,binding result,[8],binds
same,binding result,[9],binds
same,Kd,[10],101 nM
same,% cross reactivity (against AβpE3-40),[11],< 1%
same,% cross reactivity (against AβpE3-40),[12],< 1%
same,% cross reactivity (against AβpE3-40),[13],< 1%
same,% cross reactivity (against AβpE3-40),[14],< 1%
same,% cross reactivity (against AβpE3-40),[15],< 1%
same,% cross reactivity (against AβpE3-40),[16],< 1%
"Aβ 5-5-6 (monoclonal antibody of hybridoma cell line 5-5-6, DSM ACC 2923) (antibody, V domains shown, Mouse hybridoma IgG; The entries as printed begin with a leader and end with the first residues of the constant region; Heavy chain amplified with primer MHCG1, light chain with MKC; Tested as hybridoma culture supernatant; also called clone 5-5-6; antibody 5-5-6) VH: EVQLQQSGPELVKPGASMKISCKASGYSFTGYTMNWVKQSHGKNLEWIGLINPYSGVTRYNQKFKGKATLIVDKSSSTAYMELLSLTSEDSAVYYCTREAKREWDETYWGQGTLVTVSA VL: not shown",binding result,[1],binds
same,signal in ELISA (OD),[2],0.015 OD 405 nm
same,signal in ELISA (OD),[3],0.004 OD 405 nm
same,signal in ELISA (OD),[4],0.006 OD 405 nm
same,signal in ELISA (OD),[5],0.126 OD 405 nm
same,signal in ELISA (OD),[6],1.65 OD 405 nm
same,binding result,[7],binds
same,binding result,[8],binds
same,binding result,[9],binds
"Aβ 6-1-6 (monoclonal antibody of hybridoma cell line 6-1-6, DSM ACC 2924) (antibody, V domains shown, Mouse hybridoma IgG; The entries as printed begin with a leader and end with the first residues of the constant region; Heavy chain amplified with primer MHCG1, light chain with MKC; also called clone 6-1-6; N3pE antibody clone 6-1-6) VH: EVQLQQSGPELVKPGASMKISCKASGYSFTGYTMNWVKQSHGKNLEWIGLINPYNGVTRYNQKFKGKATLIVDKSSSTAYMELLSLTSEDSAVYYCTREAKREWDETYWGQGTLVTVSA VL: not shown",signal in ELISA (OD),[2],0.013 OD 405 nm
same,signal in ELISA (OD),[3],0.007 OD 405 nm
same,signal in ELISA (OD),[4],0.014 OD 405 nm
same,signal in ELISA (OD),[5],0.125 OD 405 nm
same,signal in ELISA (OD),[6],1.38 OD 405 nm
same,absorbance (450 nm corrected by 540 nm),[17],0.044 absorbance
same,absorbance (450 nm corrected by 540 nm),[18],0.048 absorbance
same,absorbance (450 nm corrected by 540 nm),[19],0.048 absorbance
same,Kd,[20],1.57 nM
same,koff,[20],0.000263 s⁻¹
same,kon,[20],167000 M⁻¹ s⁻¹
same,signal-to-noise ratio at the LOQ,[21],1.3
same,absorbance (450 nm corrected by 540 nm),[22],0.04 absorbance
same,absorbance (450 nm corrected by 540 nm),[23],0.043 absorbance
same,absorbance (450 nm corrected by 540 nm),[24],0.046 absorbance
same,binding result,[7],binds
same,binding result,[8],binds
same,binding result,[9],binds
same,absorbance (450 nm corrected by 540 nm),[25],0.055 absorbance
same,absorbance (450 nm corrected by 540 nm),[26],0.053 absorbance
same,absorbance (450 nm corrected by 540 nm),[27],0.047 absorbance
same,absorbance (450 nm corrected by 540 nm),[28],0.044 absorbance
same,absorbance (450 nm corrected by 540 nm),[29],0.048 absorbance
same,absorbance (450 nm corrected by 540 nm),[30],0.044 absorbance
same,absorbance (450 nm corrected by 540 nm),[31],0.046 absorbance
same,absorbance (450 nm corrected by 540 nm),[32],0.048 absorbance
same,absorbance (450 nm corrected by 540 nm),[33],0.048 absorbance
same,fold sensitivity against clone 12-1,[34],125 fold
same,absorbance (450 nm corrected by 540 nm),[35],0.044 absorbance
same,absorbance (450 nm corrected by 540 nm),[36],0.05 absorbance
same,absorbance (450 nm corrected by 540 nm),[37],0.045 absorbance
same,"association, fold of clone 12-1",[38],~5 fold
same,% cross reactivity (against AβpE3-40),[11],< 1%
same,% cross reactivity (against AβpE3-40),[12],< 1%
same,% cross reactivity (against AβpE3-40),[13],< 1%
same,% cross reactivity (against AβpE3-40),[39],< 1%
same,% cross reactivity (against AβpE3-40),[14],< 1%
same,% cross reactivity (against AβpE3-40),[15],< 1%
same,% cross reactivity (against AβpE3-40),[16],< 1%
same,absorbance (450 nm corrected by 540 nm),[40],0.045 absorbance
same,absorbance (450 nm corrected by 540 nm),[41],0.047 absorbance
same,absorbance (450 nm corrected by 540 nm),[42],0.048 absorbance
